{"source": "paper PMC7891725", "about": "“Shared and distinct roles of Esc2 and Mms21 in suppressing genome rearrangements and regulating intracellular sumoylation” (PLoS ONE, 2021)", "biological_target": "T1, N-terminal Protein-A tagged Esc2 (WT) (S. cerevisiae, UniProt Q06340 1-456)", "T1 construct": "Esc2, S. cerevisiae, protein with two SUMO-like domains (SLD1, SLD2); details of plasmid construction are available upon request; also called WT Esc2; ScEsc2; source: bacteria (BL21 cells), purified with IgG sepharose resin; not shown: Protein A, N-terminal, kept", "T1 sequence (looked up)": "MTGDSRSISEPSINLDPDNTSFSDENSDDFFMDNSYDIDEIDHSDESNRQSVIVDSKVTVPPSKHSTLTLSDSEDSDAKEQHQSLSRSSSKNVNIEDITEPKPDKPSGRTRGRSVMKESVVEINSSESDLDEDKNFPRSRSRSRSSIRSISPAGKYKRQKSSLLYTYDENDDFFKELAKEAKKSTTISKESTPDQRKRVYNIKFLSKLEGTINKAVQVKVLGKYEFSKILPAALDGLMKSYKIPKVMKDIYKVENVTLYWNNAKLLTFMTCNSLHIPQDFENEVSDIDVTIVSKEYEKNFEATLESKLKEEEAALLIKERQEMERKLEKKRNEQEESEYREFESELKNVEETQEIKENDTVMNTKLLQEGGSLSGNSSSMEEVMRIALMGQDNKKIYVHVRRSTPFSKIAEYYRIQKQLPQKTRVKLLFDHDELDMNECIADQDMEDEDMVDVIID", "experiment": "pull-down; 40 ug Protein-A-Esc2 (WT or D430R) bound to 20 uL IgG resin, incubated with 100 ug purified Ubc9 in 200 uL for 2 hours on ice; washed 5 times with PBS with 0.2% NP-40; bound Ubc9 eluted and seen by Coomassie staining", "details": "both partners purified"}
{"binder": "C-terminal 6xHIS tagged Ubc9 (enzyme, S. cerevisiae, UniProt P50623 1-157, looked up, Ubc9, SUMO E2 conjugating enzyme, S. cerevisiae; also called Ubc9 SUMO conjugating enzyme; E2) MSSLCLQRLQEERKKWRKDHPFGFYAKPVKKADGSMDLQKWEAGIPGKEGTNWAGGVYPITVEYPNEYPSKPPKVKFPAGFYHPNVYPSGTICLSILNEDQDWRPAITLKQIVLGVQDLLDSPNPNSPAQEPAWRSFSRNKAEYDKKVLLQAKQYSK", "values": [{"measurement": "binding result", "value": "binds"}]}
